Laboratory results: the supplement of paper PMC10126150
± gives the standard deviation of the averaged measurements.

tested on: ATP; assay: switch fluorescence ratio, 500 uM ATP over buffer (Cy3 cluster intensity, sum of 5 cycles each) (fold (ratio)); higher = stronger signal-on switching upon ATP binding; sequences stand for … in TCGTCGGCAGCGTCAGATGTGTATAAGAGACAGTTTTTTTTTTTTTTTTTTTTTTTTT…TC; settings: aptamer strand: ATP DNA aptamer (quencher-CACCTGGGGGAGTATTGCGGAGGAAGG + anchor), 100 nM annealed; ATP concentration: 500 uM
Method in brief: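 Cy3-labelled switching-strand clusters on a modified Illumina MiSeq flow-cell were annealed to 100 nM quencher-labelled ATP aptamer and imaged first in selection buffer, then after 15 min with 500 uM ATP at 22 °C. NaOH stripping and re-annealing separated each of five buffer/ATP cycles, and clusters outside 100-1000 RFU were excluded. The fluorescence ratio sums target-cycle Cy3 intensity over buffer-cycle Cy3 intensity per cluster and averages it per switch-domain sequence.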
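Further: ATP exposure 15 min at 22 °C before imaging.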

Sequence	switch fluorescence ratio
ATCCAGGTTT	1.1 ± 0.036
GGGCAAGTTA	1.009 ± 0.007
TTGCGCGGGG	1.02 ± 0.077
CGGGGGTTTG	1.01 ± 0.031
CGGTCGGGTC	1.01 ± 0.028
TCGTATTGGG	1 ± 0.056
CTCGGCTGTA	1.08 ± 0.019
GGTTAGGCAT	1 ± 0.0058
ATATTGTGTG	1.01 ± 0.048
GAACGGCTAG	1.02 ± 0.011
CCATGTTTGT	1.01 ± 0.028
CGTTTTGGCA	1.02 ± 0.027
GAGAACGTAG	0.9817 ± 0.0066
TTATGTGAGT	0.972 ± 0.0085
AATTTTGGCT	0.964 ± 0.03
AGCGATGGCC	1.05 ± 0.028
ACGGGGGTTT	0.997 ± 0.015
ATTAGTGATG	0.989 ± 0.016
GGGGGGAAGC	1.04 ± 0.064
GATGCGGGAC	1.34 ± 0.07
CAGGGGGGTG	1.01 ± 0.051
CGAGGGGGAG	1.004 ± 0.0097

Sequence	switch fluorescence ratio
ATGTTAGTGA	0.979 ± 0.042
AAACCCAGCT	0.988 ± 0.02
TCGAGCCATA	1.08 ± 0.046
TGGGATTAGA	1.021 ± 0.008
AGAGGGGCAG	0.961 ± 0.016
GGGGTTAATT	1 ± 0.026
TTAATTGTAT	0.992 ± 0.034
GATCAATTGG	1.02 ± 0.026
TAAACACTAA	1.01 ± 0.038
AAGTTGGCAT	0.977 ± 0.04
AGGCTTTTTC	0.999 ± 0.024
GGCAGCCTTT	1.0169 ± 0.00028
TAGTCATTAC	1.12 ± 0.12
GGATTAAGCT	1.015 ± 0.0043
TGGGAGTATT	0.9815 ± 0.0069
TGACGGTGGC	1.02 ± 0.017
GCTTGGGTAT	1.02 ± 0.062
CACTAGCGGA	1.05 ± 0.023
CGAATTTAAG	1.009 ± 0.0062
AGTACGAGCC	1.186 ± 0.0026
CTGGGTTCTC	0.989 ± 0.016
GTTTTTGATG	0.971 ± 0.021

Sequence	switch fluorescence ratio
ATGGTTGTTT	0.995 ± 0.02
TTGGGACTAC	1.02 ± 0.036
TTAGTATGGA	0.9837 ± 0.0013
TTGTTTGTT	0.994 ± 0.019
GGTTACCTTT	0.996 ± 0.042
ATGTTAAGGA	0.998 ± 0.012
AGTTTTTTTA	0.981 ± 0.018
GAGGGATATT	1.02 ± 0.022
GGGGAAGACG	1.01 ± 0.082
GGATGGTTCA	1.05 ± 0.072
AATGAACTCT	1.02 ± 0.034
ATTGGCACGC	1.36 ± 0.42
TTAGAATGGG	1.12 ± 0.14
TTGGTCTTGA	0.994 ± 0.018
ATAGGGACAG	1.012 ± 0.0078
TCGCTGAGTG	1.08 ± 0.12
ATTGATTC	0.9868 ± 0.0031
ATTAATAGCT	1.05 ± 0.0049
CTTATCATAT	1.09 ± 0.1
AAATTGAGGC	0.96 ± 0.027
TTTTTTTG	0.997 ± 0.026
AGCATGATGC	0.991 ± 0.037

Sequence	switch fluorescence ratio
TATCGTTCTC	0.989 ± 0.011
TGGTTTAGGC	0.997 ± 0.011
GTTAGAATGG	0.981 ± 0.017
CAGGGTGATA	1.06 ± 0.071
GGGCCAGCTT	0.988 ± 0.016
AGCAGGGGTT	1 ± 0.053
AGGTAAATGT	0.972 ± 0.023
TACAATGCTT	1.02 ± 0.017
CGTGGAGAGC	1.06 ± 0.043
ATGCATGGGA	0.987 ± 0.02
TATGGTGC	1.06 ± 0.015
CAGTGCGCCT	0.996 ± 0.036
CCTTTTGGAT	1.07 ± 0.073
TTTAGGGGG	1.04 ± 0.067
GAATTGGTTG	1 ± 0.04
ATCGGATTAG	0.995 ± 0.0094
TTTAATGGGT	1 ± 0.022
CGTCATCGGG	0.973 ± 0.029
GTGGGGTTGC	0.984 ± 0.021
